Measurements from patent USRE39433 (MEDVET SCIENCE, dated 2006).
Blank lines part the entries; values can stand above or below the molecule they belong to.

Assays:
[1] = target: IL-5R α-chain co-expressed with mutant ^418AAAYA^422 βc on COS cells (human) (UniProt Q01344); experiment: Scatchard (LIGAND) of radio-iodinated IL-5 on COS cells with IL-5R α-chain and ^418AAAYA^422 βc; single receptor class
[2] = target: IL-5R α-chain co-expressed with Y421A βc on COS cells (human) (UniProt Q01344); experiment: Scatchard (LIGAND) of radio-iodinated IL-5 on COS cells with IL-5R α-chain and Y421A βc; single receptor class
[3] = target: IL-3R α-chain co-expressed with R418A βc on COS cells (human) (UniProt P26951); experiment: radioligand saturation binding on transfected COS cells
[4] = target: IL-3R α-chain co-expressed with mutant ^418AAAYA^422 βc on COS cells (human) (UniProt P26951); experiment: as above
[5] = target: IL-3R α-chain co-expressed with mutant ^418AAAYA^422 βc on COS cells (human) (UniProt P26951); experiment: Scatchard (LIGAND) of 125I-IL-3 on COS cells with α-chains and ^418AAAYA^422 βc; high affinity site 1
[6] = target: IL-3R α-chain co-expressed with G420A βc on COS cells (human) (UniProt P26951); experiment: Scatchard (LIGAND) of 125I-IL-3 on COS cells with α-chains and G420A βc; high affinity site 1
[7] = target: IL-3R α-chain co-expressed with Y421A βc on cells (human) (UniProt P26951); experiment: cell-based or functional assay
[8] = target: IL-3R α-chain co-expressed with T419A βc on COS cells (human) (UniProt P26951); experiment: Scatchard (LIGAND) of 125I-IL-3 on COS cells with α-chains and T419A βc; high affinity site 1
[9] = target: IL-3R α-chain co-expressed with R418A βc on COS cells (human) (UniProt P26951); experiment: Scatchard (LIGAND) of 125I-IL-3 on COS cells with α-chains and R418A βc; high affinity site 1
[10] = target: IL-3R α-chain co-expressed with N422A βc on COS cells (human) (UniProt P26951); experiment: Scatchard (LIGAND) of 125I-IL-3 on COS cells with α-chains and N422A βc; high affinity site 1
[11] = target: T1, IL-3R α-chain expressed on cells without βc (UniProt P26951 19-378, limits assumed); experiment: radioligand saturation binding, COS cells with α-chain only; range of affinities observed
T1 construct: whole, on cells; also called α-chain only; hIL-3Rα

[12] = target: T2, IL-3R α-chain co-expressed with wild type βc on cells (human, UniProt P26951 19-378; P32927 17-897); experiment: Scatchard (LIGAND) of 125I-IL-3 on COS cells with α-chains and wild type βc; high affinity site 1, low affinity site fixed at 50 nM
T2 construct: whole, on cells; The COS cells carried GM-CSFR and IL-3R α-chains together with βc; also called Wt βc
T2 sequence (P26951 19-378, chain 1 of 2): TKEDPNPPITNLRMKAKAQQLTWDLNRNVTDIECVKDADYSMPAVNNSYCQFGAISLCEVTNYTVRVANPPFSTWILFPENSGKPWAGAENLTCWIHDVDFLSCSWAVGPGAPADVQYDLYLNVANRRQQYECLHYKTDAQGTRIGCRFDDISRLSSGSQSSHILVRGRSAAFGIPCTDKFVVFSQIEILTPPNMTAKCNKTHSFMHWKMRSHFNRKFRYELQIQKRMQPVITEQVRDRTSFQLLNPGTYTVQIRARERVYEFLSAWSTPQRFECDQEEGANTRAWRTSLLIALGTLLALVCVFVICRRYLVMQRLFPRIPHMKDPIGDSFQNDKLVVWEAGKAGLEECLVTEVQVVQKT
T2 sequence (P32927 17-897, chain 2 of 2): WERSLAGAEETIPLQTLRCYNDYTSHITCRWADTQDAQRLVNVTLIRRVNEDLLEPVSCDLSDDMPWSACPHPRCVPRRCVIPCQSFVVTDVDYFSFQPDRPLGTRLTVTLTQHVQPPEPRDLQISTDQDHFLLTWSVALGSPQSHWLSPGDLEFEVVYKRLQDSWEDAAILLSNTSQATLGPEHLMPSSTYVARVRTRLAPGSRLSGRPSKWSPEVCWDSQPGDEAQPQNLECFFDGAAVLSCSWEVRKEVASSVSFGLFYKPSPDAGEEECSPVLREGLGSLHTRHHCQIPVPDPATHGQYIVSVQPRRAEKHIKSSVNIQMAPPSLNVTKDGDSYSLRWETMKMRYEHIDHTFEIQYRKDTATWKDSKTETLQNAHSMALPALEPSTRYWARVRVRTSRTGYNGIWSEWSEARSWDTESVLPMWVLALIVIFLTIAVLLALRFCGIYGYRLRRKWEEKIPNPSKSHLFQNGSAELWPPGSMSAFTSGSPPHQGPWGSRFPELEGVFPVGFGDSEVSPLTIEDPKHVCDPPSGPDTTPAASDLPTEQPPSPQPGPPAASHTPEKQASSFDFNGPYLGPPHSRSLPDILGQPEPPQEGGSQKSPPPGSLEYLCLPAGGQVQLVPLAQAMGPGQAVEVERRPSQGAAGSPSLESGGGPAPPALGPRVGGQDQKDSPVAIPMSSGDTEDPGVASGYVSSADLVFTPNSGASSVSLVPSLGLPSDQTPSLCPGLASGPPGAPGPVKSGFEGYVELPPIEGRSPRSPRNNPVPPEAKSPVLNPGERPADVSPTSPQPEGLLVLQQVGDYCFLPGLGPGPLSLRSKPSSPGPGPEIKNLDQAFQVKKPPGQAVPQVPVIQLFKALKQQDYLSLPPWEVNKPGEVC

Sequence of IL-3R α-chain co-expressed with R418A βc on COS cells (human) (P26951 19-378, chain 1 of 2): as the sequence (P26951 19-378, chain 1 of 2) above
Sequence of IL-3R α-chain co-expressed with R418A βc on COS cells (human) (P32927 17-897 R418A, chain 2 of 2, further chain): as the sequence (P32927 17-897, chain 2 of 2) above, with R402A counted along it
Sequence of IL-3R α-chain co-expressed with mutant ^418AAAYA^422 βc on COS cells (human) (P26951 19-378, stated change not applied, chain 1 of 2): as the sequence (P26951 19-378, chain 1 of 2) above
Sequence of IL-3R α-chain co-expressed with mutant ^418AAAYA^422 βc on COS cells (human) (P32927 other isoform, or with tags, fused parts or gaps mutant, chain 2 of 2, further chain): as the sequence (P32927 17-897, chain 2 of 2) above, with R402A, T403A, G404A, N406A counted along it
Sequence of IL-5R α-chain co-expressed with Y421A βc on COS cells (human) (Q01344 21-420, chain 1 of 2): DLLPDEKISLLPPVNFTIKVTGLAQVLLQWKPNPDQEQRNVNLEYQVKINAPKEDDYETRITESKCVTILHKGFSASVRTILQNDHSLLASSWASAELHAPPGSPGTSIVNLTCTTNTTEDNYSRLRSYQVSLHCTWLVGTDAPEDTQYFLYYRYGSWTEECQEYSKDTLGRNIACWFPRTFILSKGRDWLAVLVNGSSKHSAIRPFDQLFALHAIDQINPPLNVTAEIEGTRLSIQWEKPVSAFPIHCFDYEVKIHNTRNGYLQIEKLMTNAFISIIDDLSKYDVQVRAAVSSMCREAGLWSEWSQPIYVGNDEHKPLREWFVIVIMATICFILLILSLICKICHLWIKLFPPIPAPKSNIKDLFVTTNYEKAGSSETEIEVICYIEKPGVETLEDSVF
Sequence of IL-5R α-chain co-expressed with Y421A βc on COS cells (human) (P32927 17-897 Y421A, chain 2 of 2, further chain): as the sequence (P32927 17-897, chain 2 of 2) above, with Y405A counted along it
Sequence of IL-5R α-chain co-expressed with mutant ^418AAAYA^422 βc on COS cells (human) (Q01344 21-420, stated change not applied, chain 1 of 2): as the sequence (Q01344 21-420, chain 1 of 2) above
Sequence of IL-5R α-chain co-expressed with mutant ^418AAAYA^422 βc on COS cells (human) (P32927 other isoform, or with tags, fused parts or gaps mutant, chain 2 of 2, further chain): as the sequence (P32927 17-897, chain 2 of 2) above, with R402A, T403A, G404A, N406A counted along it
Sequence of IL-3R α-chain co-expressed with Y421A βc on cells (human) (P26951 19-378, chain 1 of 2): as the sequence (P26951 19-378, chain 1 of 2) above
Sequence of IL-3R α-chain co-expressed with Y421A βc on cells (human) (P32927 17-897 Y421A, chain 2 of 2, further chain): as the sequence (P32927 17-897, chain 2 of 2) above, with Y405A counted along it
T1 sequence (P26951 19-378 limits assumed): as the sequence (P26951 19-378, chain 1 of 2) above
Sequence of IL-3R α-chain co-expressed with N422A βc on COS cells (human) (P26951 19-378, chain 1 of 2): as above
Sequence of IL-3R α-chain co-expressed with N422A βc on COS cells (human) (P32927 17-897 N422A, chain 2 of 2, further chain): as the sequence (P32927 17-897, chain 2 of 2) above, with N406A counted along it
Sequence of IL-3R α-chain co-expressed with G420A βc on COS cells (human) (P26951 19-378, chain 1 of 2): as the sequence (P26951 19-378, chain 1 of 2) above
Sequence of IL-3R α-chain co-expressed with G420A βc on COS cells (human) (P32927 17-897 G420A, chain 2 of 2, further chain): as the sequence (P32927 17-897, chain 2 of 2) above, with G404A counted along it
Sequence of IL-3R α-chain co-expressed with T419A βc on COS cells (human) (P26951 19-378, chain 1 of 2): as the sequence (P26951 19-378, chain 1 of 2) above
Sequence of IL-3R α-chain co-expressed with T419A βc on COS cells (human) (P32927 17-897 T419A, chain 2 of 2, further chain): as the sequence (P32927 17-897, chain 2 of 2) above, with T403A counted along it

Kd [1]: 710 pM
Kd [2]: 1860 pM
Molecule: Human interleukin IL-5 (from UniProt P05113 20-134) (ligand)

fold reduction of high affinity binding against wild type βc [3]: 2 to 3 fold
fold reduction of affinity against wild type high affinity binding [4]: 3 fold
Kd [5]: 113 pM
Kd [6]: 196 pM
STAT5-L activation (EMSA with STAT5 probe, phosphorimager) in transfected Jurkat cells; concentration for half maximal activation [7]: > 3 µM
Kd [8]: 151 pM
Kd [9]: 511 pM
Kd [10]: 80 pM
Molecule: Human interleukin (IL)-3 (from UniProt P08700 20-152) (ligand)

Kd [11]: 20000 to 100000 pM
Kd [12]: 141 pM
B1: Human interleukin (IL)-3 (ligand, UniProt P08700 20-152, looked up)
chain: APMTQTTPLKTSWVNCSNMIDEIITHLKQPPLPLLDFNNLNGEDQDILMENNLRRPNLEAFNRAVKSLQNASAIESILKNLLPCLPLATAAPTRHPIHIKDGDWNEFRRKLTFYLKTLENAQAQQTTLSLAIF
modifications: radio-iodinated (125I) in the saturation binding studies
notes: unlabelled in the STAT5-L assays on Jurkat cells; also called ^125I-IL-3
